Assay results reported in a protein production outcome set (Wang et al. 2014).

Assay: label from the status in PepcDB records
In the case of “MESSGNPESTTFFYYDLQSQPCENQAWVFATLATTVLYCLVFLLSLVGNSLVLWVLVKYESLESLTNIFILNLCLSDLVFACLLPVWISPYHWGWVLGDFLCKLLNMIFSISLYSSIFFLTIMTIHRYLSVVSPLSTLRVPTLRCRVLVTMAVWVASILSSILDTIFHKVLSSGCDYSELTWYLTSVYQHNLFFLLSLGIILFCYVEILRTLFRSRSKRRHCTVKLIFAIVVAYFLSWGPYNFTLFLQTLFRTQIIRSCEAKQQLEYALLICRNLAFSHCCFNPVLYVFVGVKFRTHLKHVLRQFWFCRLQAPSPASIPHSPGAFAYEGASFY”, the protein production is reported as “failed”.
With “MESTKQEEQGIYAATPPATGLLERLFKLRQHGTTVRTELAAGLTTFITMAYIIFVNPNIMADAGIDHGAAFVATCLAAALGCFLMGLYANWPVGLAPGMGLNAFFTYTVVGTMGYSWQIALGAVFISGVMFMLLTFSRVREWLLNSIPRSLRFAMGAGVGLFLGLIGLKTAGIVVASPATLIKLGHLTSPGPLLAALCFLMIAVLEYRRVFGGILISILSVTLVGWALGLVQYGGVFSAPPSLAPTFLAMDIAGAFNVTMISVILAFLFVHMFDTAGTLMGVAQRAHLVKEDGRIENLSKAMKADSASSVFGGMLGVPPVTSYVESAAGVAAGGRTGLTAVVVGVLFVAAMFFAPLAGMIPAFATAGALIYVAMLMMGGMAHIDWDEHTETIPAIVTVIMMPLTFSVADGIALGFITYVAMKVLTGKHREVSASLYALFVIFVAKFIFL” the protein production was “failed”.
In the case of “MESYDIEGSNQNYVYINVNRWTSTEYPQNTFVYEVLRTPIGSSLESGPEIVKVGVRSTKVASKDITVTLDIDNCASIGEFSSFPDGVKVTLDKKELVIPAGSMLSSDSVTIEIEDGKWSEFVNTSYLLPLKVTSVSNAALSETHSSAYLAVSTSFTNCVPGATSVEGTLISDRSAWTATNNGVDVGTTLFDGNTRTYPSQDASSTVIVNLNGVYQNITGIRLQYYSRNYSLSSAAVYTSETGGEDYEYQGNVTFSRATPQYIRFYGAVSARYVKLELLPYSSGYGIVLSEFDMYQNELEHHHHHH”, the protein production is reported as “not failed”.
In the case of “METKILSNATHKCVLVIDNAQPTGIVANIASVLSMTLGCRVSNIVSHDVYDKQGERHLGITQLPIPILGASQEKIKELRNYFHSLEIEDLVLVDFSTIAQQSRTYDEYEREMYSANEDDLHYVGIGICAEKKAINKATGSLSLIRLEHHHHHH”, the protein production is reported as “failed”.
In the case of “METLILTQEEVESLISMDEAMNAVEEAFRLYALGKAQMPPKVYLEFEKGDLRAMPAHLMGYAGLKWVNSHPGNPDKGLPTVMALMILNSPETGFPLAVMDATYTTSLRTGAAGGIAAKYLARKNSSVFGFIGCGTQAYFQLEALRRVFDIGEVKAYDVREKAAKKFVSYCEDRGISASVQPAEEASRCDVLVTTTPSRKPVVKAEWVEEGTHINAIGADGPGKQELDVEILKKAKIVVDDLEQAKHGGEINVAVSKGVIGVEDVHATIGEVIAGLKDGRESDEEITIFDSTGLAIQDVAVAKVVYENALSKNVGSKIKFFRI”, the protein production is reported as “not failed”.
With “METLSVGHKIKTLRQSLGLSQRDLAEGICTQALISHIEKNKTTPTVDVFFNIAKKLGAPADYFLETHDNSLDYILEVQYQIRKQVQEHNYEEALNIIKTERKNPIFNNSKYLQFLLWHEAICEYSLNKRYNEAVEAIEEALKLTHKEGNSYSEREIEILISLANFHDSEKKYDLSTKIYQDINDSLKALSYLSDRKIQLRFLFNYSLNRNNVKRYKEAIDLCNKGIILCKQHGFLYSFGEFHYQKGQNLIDLGRKKEALKFLEKAKMIFDIQDNELFANIADKEIKKLQKSLEMTVS” the protein production was “failed”.
In the case of “METRARYVLIGIFTLASILATLGFLLWLAKVQLDRTYAEYDILFTSVEGLGRASPVRYNGVDVGEVLNIAVDAEDPSLVRVRIQLAATTPVRTDTKAQVASQGVTGVSYVSLSGGAAPEPLTAEGDQWPPVIPSERSAVQALTADAPTLLAEAIALLKDIQTFTGPENRAAVESILTNADASVQNIAAITRDAAEATSRLNDFTARLDAMADRADVALASLETALEEGKGAAASARDTFEAVNRVVDRDVPPMIAQIRSAVSGIERSVAGIRNFADNGLPQYATLAAETRRTVTNLNSLIAQISRDPARFFLGSQTPSYRR”, the protein production is reported as “failed”.
With “METSKKLVIVAVLSITLILTYAYLISIIEGVDYFTALYFSVITITTTGYGDFTPKTFLGRTLTVVYLCVGVGIVMYLFSLIAEFIVEGKFEEFVRLKKMKNKIKTLKDHYIICGYGRLGKVVGEKFIEENIPFIAIDINEDVLKEEYEKYPDKFLYIVGDAKKEEVLKKAKIDKAKGLIATLPSDADNVFLTLTARELNPNILITAKADEKEAIRKLKIAGANRVVSPYLIGGLRMAEVSVRPGILDFLSTFIKIAKDEYEEDIELRKFVIEKDSELAYKSLKDANIRGKTGATILGIRREKEFCINPYPEFILKPGDVIYAFGTEENLKYLENLVKKKKKKL” the protein production was “failed”.
In the case of “METVRPMVVAPKGNKLRRKFAKVLNIHKLTGVAPEGEMKKIKFDSKTAKLSESFYKLEEEYERSQGLEALLAKLFATVSSIKAAYAQLQHSQSPYDSIGIQKADNLVVAELKTLSELKQCFMKKQVDPNPERTLVLAEIQELRSLLKTYEIMGKKLESQYKLKDSEIIFLREKLDESMKQNKLTEKRLNQSGQLCNPLDNLHLSALNPTHFVTYLHHTVKSTRGFVKLMIEQMKLAGWDISSAANSIHPGVFYYKQDHKCFTFEHFVSNVMFEAFHLPYFSTSSESRSYKKKKQSNADREMFFERFKELRSMKAKDYLTARPKSRFARFCRAKYLQLIHPKMEQAFFGHLHLRNQVSAGEFPETSLFSGFLEMAKRIWLLHCLALSFEREAEIFRVPKGCRFSEVYMKSVAEEAFFPAAESSPESEPRVAFTVVPGFRIGKTSIQCEVYLSLS”, the protein production is reported as “failed”.
With “MEVKQGLTLFARKQDMKSVWEITGSNIDLVCIGNFCRSLKDLSSRGGTDASTNTCMLPWQYSLQKPLLGVSYLNSDGSSQSTPHGSNGLVKRGATYIVSDDLTICVKKKFDVNLDDIFEHEINIGKTHSLIRDIHCLDYGFRELSFRETTLKHQSHALCGAD” the protein production was “failed”.
For “MEVSHVTLEPNKDSRPAVLTIGKFDGVHLGHQTILNTALSIKKENEILTAISFSPHPLWALKQIEIYREMLTPRMEKERWLAHYGVDHLIETAFTPRYAETTPEEFVTDHLSNLQLSHIIVGSEFNFGKGRDSDVDLLRDLCKPYGIGVTSVPVIETNQTKISSTNIRAFIRRGHFLEAEQLLGHP”, the protein production was “failed”.
For “MEWGISLQTKWSLSEYENPKRYDIENKSLSDFPFLLSWAQKLHIQNEWILDIACGTGRVTIPFIENGYQMIGVDIHEGMLAEAKKKTTDCKKVKWLQQDCLQLSMNEAIPFAFMVGHGFQHFLTNTDQNKLLTSIHHVLAENGIFIFDTRFPSKEELIQPSTEEYWTTISDEKGRECDLYTEMTYDLIQQIQHYITIRKFYDDDALVEELKTTIDLRYTYPQELERLLVANGFELLHIYNDWEGNELGEDCYSMVVVCRKK”, the protein production was “failed”.
For “MEYLFLRRKRTTATSERQKTLLFKAAERQWKEEFAGKETDIRKVDCNIYKGILYQLEIRQVFLDTSLSLKKLSALLETNQTYLSNVVNKYFGCNLKELVNTYRVEYAKELLCSRRCALTELPCSCGFASKSAFYSAFSRIVGVSPLSYQTQERRRHHLQAVNLEHHHHHH”, the protein production was “failed”.
For “MEYLIYSLIAVIILTVGLNNIFKKQSKYFYMLATLISVVVTSYEIFKIWTGFKLEGIIFVLERSFMKGFVSTALFILVMFAGALSKKWGITKKLLRVRAEMAILASILILPHFIIYTYKFLVRLFSGKPLSILYISFIIVGLIAFIIMIPLFITSFKKVRVTMSPSKWKMVQRWAYPFYFLVYVHIILILFNKKVFNLNAVIIYTVIFLGYFILRICNNKKAIK”, the protein production was “failed”.
With “MEYNVQDMIFQFIGGLGIFLFGIKYMGDGLQQAAGDRLRDILDRFTTNPLMGVLAGMLVTVLIQSSSGTTALTVGLVSAGFMTLRQAIGVIMGANIGTTVTAFIIGIKIGEYALPVMAVGAILLFFFKNKKVHSVGQVVFGFGMLFFGLELMSAGMKPLRSLESFQELTVSMSDNPILGIVVGTVFTLIVQSSSATIGILQELFGQGAIDLQAALPVLFGDNIGTTITAVLAAIGTSIAARRAALVHVIFNIIGTIIFTILLIPFTSLIQYFQTSLNLNPEMTIAFAHGTFNVTNTIIQFPFIAVLAWIVTKIIRGEDAAIDFKPQHLNPIFIEQSPAIALTEAQKEIIRMAEFSLHGLKEANQFLNTQDKKHANMATQLEGAINNLDKKITEYLVLLSEKPLSPTDSEKHSVLAGVVGDIERVGDHVENLVELVDFQISNRVSLSDEALAELNEMLELTISTLQDSVEALTNFDTELAQTVIAKERKIDQMERVLRKRHVLRLNERSCSGDASIIFVDMVSNLERIGDHAVNIADGVLGEQGKINLKQSL” the protein production was “failed”.
